Columns and labels:
purified protein = substrate: NC(=O)c1ccc[n+]([C@@H]2O[C@H](COP(=O)(O)O)[C@@H](O)[C@H]2O)c1; test: purified protein; assay type: biochemical, Agrobacterium fabrum; conditions: 50 mM sodium phosphate pH 7.5, 37 °C
[1] = molecular target: the molecule itself; test: SEC; gel filtration on Superdex 200 10/300 GL of the purified enzyme; about 41 kDa against about 19 kDa by SDS-PAGE

Row | Protein | Km (purified protein) [µM] | kcat (purified protein) [s⁻¹] | kcat/Km (purified protein) [M⁻¹ s⁻¹] | stoichiometry N [1]
1 | AtCinA (NMN deamidase) (Agrobacterium fabrum str. C58) (protein, full length (169 residues, synthetic 510 bp gene), C-terminal His tag (pET24b), E. coli Rosetta 2(DE3); about 19 kDa subunit, 41 kDa homodimer) MSLFPGDIEELARRIITDFTPLGLMVSTAESCTGGLIAGALTEIAGSSAVVDRGFVTYTNDAKRDMLGVGTETLTTFGAVSRQTALQMAHGALYRSRANFAVAVTGIAGPGGGSAEKPVGLVHLATKARNGNVLHHEMRYGDIGRTEIRLATVRTALEMLIALNQAGSV | 24 ± 2 | 8.7 ± 0.2 | 362000 | –
2 | Agrobacterium tumefaciens nicotinamide mononucleotide (NMN) deamidase (enzyme, NMN deamidase CinA of Agrobacterium tumefaciens, UniProt A9CJ26, 169 amino acids; 510 bp synthetic gene cloned between NheI and XhoI of pET24b; Cloning at the NheI and XhoI sites may add a few vector residues; also called AtCinA; CinA) MSLFPGDIEELARRIITDFTPLGLMVSTAESCTGGLIAGALTEIAGSSAVVDRGFVTYTNDAKRDMLGVGTETLTTFGAVSRQTALQMAHGALYRSRANFAVAVTGIAGPGGGSAEKPVGLVHLATKARNGNVLHHEMRYGDIGRTEIRLATVRTALEMLIALNQAGSV | – | – | – | 2
